Laboratory results as given in US20080118487A1.
Changes are numbered by the printed parent chain. Where no end group is shown, it is not given here.

Columns and labels:
[1] = biological target: T1, recombinant myostatin (Example 4); assay: cell-based or functional assay
T1 sequence (O14793 267-375, species assumed, looked up): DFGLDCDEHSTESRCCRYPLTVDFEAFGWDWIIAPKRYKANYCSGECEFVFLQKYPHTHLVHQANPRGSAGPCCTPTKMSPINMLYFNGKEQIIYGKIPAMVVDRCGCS

[2] = biological target: T2, recombinant bovine mature myostatin (bovine) (UniProt O18836); assay: cell-based or functional assay
T2 sequence (looked up): T1 sequence (O14793 267-375, species assumed, looked up) with K90E, E91G

B1: recombinant ovine myostatin splice variant 65 (roMSV65) (peptide, not shown: small tags and cut ends)
chain: VHFYTPPYGQWIFHKERKIIFLEVYIQFCSILGEAVFKRQSKSIHFCQNFKIIACLCNTAAFRMK
Question: B1 was tested. Which rescue of myostatin inhibited myoblast proliferation (C2C12, methylene blue assay) (molar ratio roMSV65 to myostatin) [1] did it give?
Answer: 20

B2: recombinant ovine MSV47 (roMSV47) (peptide, not shown: small tags and cut ends)
chain: IIFLEVYIQFCSILGEAVFKRQSKSIHFCQNFKIIACLCNTAAFRMK
modifications: ends and bridges not checked; also: 36-aa N-terminal pET100/D-TOPO tag (enterokinase site, Xpress epitope, His), letters not shown
Question: What does the source list for B2?
Answer: rescue of myostatin inhibited myoblast proliferation (C2C12, methylene blue assay) (molar ratio roMSV47 to myostatin) [2]: 1; restoring proliferation of C2C12 myoblasts inhibited by myostatin (molar ratio roMSV47 to myostatin) [2]: 10

B3: recombinant human MSV38 (rhMSV38) (peptide, not shown: small tags and cut ends)
chain: VHFPTPPNEEWIFFNVRRIIFLEVGFQFCSILGETALS
modifications: also: 36-aa N-terminal pET100/D-TOPO tag (enterokinase site, Xpress epitope, His), letters not shown
Question: B3 was tested. Which proliferation of primary human myoblasts inhibited by myostatin (molar ratio rhMSV38 to myostatin) [2] did it give?
Answer: 10

Question: And the restoration of proliferation of human primary myoblasts inhibited by myostatin (methylene blue assay) (molar ratio rhMSV38 to myostatin) [2]?
Answer: 1
